{
  "source": "patent US20210179716A1",
  "key": {"[1]": {"biological_target": "human CD47 on the cell surface (human)", "assay": "cell binding to HT1080 tumor cells in a 1:10 mixture with red blood cells"}, "[2]": {"biological_target": "human CD47 on the cell surface (human)", "assay": "cell binding to red blood cells in a 1:10 mixture of HT1080 cells and red blood cells"}},
  "data": [
    {"substance": "monospecific anti-CD47 mAb 5F9 (antibody)", "values": [
      {"measurement": "EC50", "setting": "[1]", "value": "< 0.1", "unit": "nM"},
      {"measurement": "EC50", "setting": "[2]", "value": "< 0.1", "unit": "nM"}
    ]}
  ]
}
